According to PMC8113602:

How the values were obtained:
[1] = molecular target: gp41 bait of pBT3-SUC-gp41 (ectodomain and transmembrane region of gp41, HIV-1 Env aa 534-709); assay: split-ubiquitin yeast two-hybrid, β-galactosidase activity assay; details: yeast NMY51, three independent yeast colonies, parent: est. 39, read off a plot
SP-gp41-CFP (HIV-1) = assay: FRET or BRET; acceptor photobleaching FRET in HEK293T cells 24 h after transfection; donor SP-gp41-CFP, acceptor CD63-YFP; 514 nm bleaching

Substance | response [1] | reduction of FRET efficiency against CD63-YFP as acceptor (SP-gp41-CFP (HIV-1))
CD63 TM4LEL (aa 108-238), single membrane spanning prey (from UniProt P08962) C145A; C146A | 11 Miller units | –
CD63 TM4LEL (aa 108-238), single membrane spanning prey (from UniProt P08962) C169A; C170A | 30 Miller units | –
CD63 TM4LEL (aa 108-238), single membrane spanning prey (from UniProt P08962) C177A | 25 Miller units | –
CD63 TM4LEL (aa 108-238), single membrane spanning prey (from UniProt P08962) C191A | 17 Miller units | –
CD63_(C145A,C146A)-YFP (from UniProt P08962 1-238) (natural protein) | – | < 58%
